The results in this text go back to article PMC11321651, “Regulation of Glandular Size and Phytoalexin Biosynthesis by a Negative Feedback Loop in Cotton”.

The data set addresses T1, JAVL (JAVL_A) (UniProt A0A1U8LLK1 1-170).
T1 sequence: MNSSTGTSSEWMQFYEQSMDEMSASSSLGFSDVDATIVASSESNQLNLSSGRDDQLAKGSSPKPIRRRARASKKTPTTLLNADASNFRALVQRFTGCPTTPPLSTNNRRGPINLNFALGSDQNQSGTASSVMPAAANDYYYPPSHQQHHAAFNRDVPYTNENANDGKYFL
The data set can be described thus: EMSA; EMSA: 30 °C for 30 min, then 5% native PAGE in Tris/borate/EDTA, 10 V/cm, 4 °C; 10x and 100x cold competitor; binding buffer, salt and pH not stated. The note with it: protein: recombinant; tags: His (pET32a); label: Cy5; blunt (duplex implied, only one strand printed). (In general: In EMSA bound probe runs differently from free probe, usually more slowly.)

B1: AOS promoter G-box probe (dsDNA)
DNA 1: TTATGGCTGTAAAAACGTGCGAATTCATGGAG
DNA 2: CTCCATGAATTCGCACGTTTTTACAGCCATAA
With B1, the binding result is reported as “binds”.

B2: GoPGF promoter G-box probe (dsDNA)
DNA 1: AACAGGAGATTTCCACGTGATAATGATGTCAA
DNA 2: TTGACATCATTATCACGTGGAAATCTCCTGTT
Take B2: the binding result is listed as “binds”.
